The values that follow come from paper PMC9436119, “Alkaline ceramidase catalyzes the hydrolysis of ceramides via a catalytic mechanism shared by Zn^2+-dependent amidases” (PLoS ONE, 2022).

Data set [1] concerns the target T1, alkaline ceramidase 3 (ACER3) (Homo sapiens, UniProt Q9NUN7).
T1 sequence (Q9NUN7 1-267): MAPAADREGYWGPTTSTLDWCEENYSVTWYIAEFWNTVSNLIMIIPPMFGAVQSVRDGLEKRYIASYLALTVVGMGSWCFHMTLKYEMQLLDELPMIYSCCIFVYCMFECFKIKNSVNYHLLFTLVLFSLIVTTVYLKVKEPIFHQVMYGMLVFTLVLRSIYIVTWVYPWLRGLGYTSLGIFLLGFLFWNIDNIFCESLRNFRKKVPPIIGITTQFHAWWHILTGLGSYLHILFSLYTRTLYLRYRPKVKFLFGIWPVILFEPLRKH
As to the kind of experiment: microsomal ceramidase activity assay with NBD-C12-PHC, HPLC fluorescence; Lineweaver-Burk kinetics. Format: biochemical.

Substrate in data set [2]: CCCCCCCCCCCCCC[C@@H](O)[C@@H](O)[C@H](CO)NC(=O)CCCCCCCCCCCNc1ccc([N+](=O)[O-])c2nonc12
As to the kind of experiment: cells, lysate or membranes. The format is biochemical, Homo sapiens.

Substrate in data set [3]: CCCCCCCCCCCCCC[C@@H](O)[C@@H](O)[C@H](CO)NC(=O)CCCCCCCCCCCNc1ccc([N+](=O)[O-])c2nonc12
Description: Michaelis-Menten kinetics (KM), microsomal assay with HPLC fluorescence. Format: biochemical, Homo sapiens. As to conditions: Zn2+ (Ca2+ in buffer) Zn2+ active site.

Substitutions are numbered along the chain they refer to. Names and notes keep the numbering of the source.

`CC(/C=C/C(=O)NO)=C\[C@@H](C)C(=O)c1ccc(N(C)C)cc1` [TSA, Trichostatin A] gave an IC50 in data set [1] of 71.4 µM.

B1: alkaline ceramidase 3 (ACER3) (Homo sapiens) (protein)
chain: T1 sequence (Q9NUN7 1-267)
notes: FLAG-tagged open reading frame of wild-type ACER3, in microsomes of yeast Δypc1Δydc1 cells
In the case of B1, the Michaelis constant (Km) in data set [2] (Zn2+ (Ca2+ in buffer) Zn2+ active site (His81, His217, His221, Asp92, Ser77)) was 15.48 ± 1.248 µM.

B2: alkaline ceramidase 3 (ACER3) (Homo sapiens; S77C) (protein)
chain: T1 sequence (Q9NUN7 1-267) with S77C
notes: FLAG-tagged ACER3 S77C, in microsomes of yeast Δypc1Δydc1 cells
Take B2: the Michaelis constant (Km) in data set [2] (Zn2+ (Ca2+ in buffer) Zn2+ active site) came to 66.43 ± 6.143 µM.

B3: alkaline ceramidase 3 (ACER3) (Homo sapiens; S77A) (protein)
chain: T1 sequence (Q9NUN7 1-267) with S77A
notes: FLAG-tagged ACER3 S77A, in microsomes of yeast Δypc1Δydc1 cells
Take B3: the Km in data set [3] worked out at 38 µM.

What is called IC50 is the concentration needed to halve the response being measured. Broadly, the Km is the substrate concentration at which the rate is half of its maximum.
